# Source: publication PMC9482650, “Quantitative fragmentomics allow affinity mapping of interactomes” (Nature Communications, 2022)
# T1: SNTG1, Q9NSN8
# T1 sequence (Q9NSN8 52-150, limits assumed, looked up): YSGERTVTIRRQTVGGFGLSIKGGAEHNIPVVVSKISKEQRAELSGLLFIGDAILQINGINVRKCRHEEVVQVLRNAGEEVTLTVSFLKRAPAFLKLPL
# T2: DFNB31_1, Q9P202
# T2 sequence (Q9P202 135-233, limits assumed, looked up): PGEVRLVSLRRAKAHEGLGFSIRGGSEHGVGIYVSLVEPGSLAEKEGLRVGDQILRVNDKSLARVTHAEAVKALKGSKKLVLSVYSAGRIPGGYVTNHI
# T3: DFNB31_3, Q9P202
# T3 sequence (Q9P202 811-907, limits assumed, looked up): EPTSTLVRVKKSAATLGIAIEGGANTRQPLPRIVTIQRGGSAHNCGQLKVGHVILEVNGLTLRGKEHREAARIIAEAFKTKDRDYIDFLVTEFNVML
# T4: PDZD7_3, Q9H5P4
# T4 sequence (Q9H5P4 857-944, limits assumed, looked up): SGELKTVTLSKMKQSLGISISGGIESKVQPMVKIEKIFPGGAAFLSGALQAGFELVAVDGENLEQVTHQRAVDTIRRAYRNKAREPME
# T5: TJP3_3, O95049
# T5 sequence (O95049 375-456, limits assumed, looked up): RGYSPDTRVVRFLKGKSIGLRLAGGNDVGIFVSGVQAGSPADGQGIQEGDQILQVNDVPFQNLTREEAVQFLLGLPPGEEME
# T6: SIPA1L2, Q9P2F8
# T6 sequence (Q9P2F8 945-1036, limits assumed, looked up): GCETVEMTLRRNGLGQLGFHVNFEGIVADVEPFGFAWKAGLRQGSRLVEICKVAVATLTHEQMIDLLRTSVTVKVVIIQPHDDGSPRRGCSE
# T7: SNTA1, Q13424
# T7 sequence (Q13424 82-180, limits assumed, looked up): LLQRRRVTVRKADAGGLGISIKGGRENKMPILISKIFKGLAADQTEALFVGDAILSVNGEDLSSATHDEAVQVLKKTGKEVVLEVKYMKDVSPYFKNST
# T8: CARD11, Q9BXL7
# T8 sequence (Q9BXL7 662-765, limits assumed, looked up): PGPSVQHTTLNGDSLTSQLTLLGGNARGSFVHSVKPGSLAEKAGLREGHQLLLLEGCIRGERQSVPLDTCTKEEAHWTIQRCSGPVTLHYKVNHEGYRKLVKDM
# T9: APBA2_2, Q99767
# T9 sequence (Q99767 654-744, limits assumed, looked up): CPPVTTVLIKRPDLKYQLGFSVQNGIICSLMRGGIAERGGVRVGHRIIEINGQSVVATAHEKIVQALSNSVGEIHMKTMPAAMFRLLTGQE
# T10: FRMPD1, Q5SYB0
# T10 sequence (Q5SYB0 52-145, limits assumed, looked up): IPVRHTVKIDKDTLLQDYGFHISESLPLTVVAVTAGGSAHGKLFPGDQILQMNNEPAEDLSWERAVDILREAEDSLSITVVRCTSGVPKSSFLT
# T11: ARHGAP21, Q5T5U3
# T11 sequence (Q5T5U3 45-169, limits assumed, looked up): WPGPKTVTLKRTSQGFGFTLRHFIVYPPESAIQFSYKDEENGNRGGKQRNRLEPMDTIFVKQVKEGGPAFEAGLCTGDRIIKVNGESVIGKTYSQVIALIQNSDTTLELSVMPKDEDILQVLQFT
# T12: PARD3B_1, Q8TEW8
# T12 sequence (Q8TEW8 196-299, limits assumed, looked up): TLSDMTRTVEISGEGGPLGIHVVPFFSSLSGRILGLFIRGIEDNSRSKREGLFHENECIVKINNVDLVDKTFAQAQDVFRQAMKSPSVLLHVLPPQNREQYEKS
# T13: HTRA3, P83110
# T13 sequence (P83110 354-453, limits assumed, looked up): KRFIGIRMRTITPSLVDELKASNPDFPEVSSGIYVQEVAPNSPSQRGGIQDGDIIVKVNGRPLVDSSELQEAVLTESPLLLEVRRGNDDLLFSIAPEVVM
# Target: T1, SNTG1, Q9NSN8
# Test: holdup assay
# Parameters: key: below the threshold = too weak to quantify, mostly under pKd 3.1 to 4
# Conditions: plain residues with an end cap or a label only (N-terminal biotin on a linker: ado-ado)
row,Binder,pKd
1,"VISSDDLTEL [CAPN6, Q9Y6Q1]",below the threshold
2,"QLGSPTADLA [SIPA1, Q96FS4]",below the threshold

# Target: T2, DFNB31_1, Q9P202
# Test: holdup assay
# Parameters: key: below the threshold = too weak to quantify, mostly under pKd 3.1 to 4
# Conditions: plain residues with an end cap or a label only (N-terminal biotin on a linker: ado-ado)
row,Binder,pKd
1,"VISSDDLTEL [CAPN6, Q9Y6Q1]",3.56
2,"QLGSPTADLA [SIPA1, Q96FS4]",below the threshold

# Target: T3, DFNB31_3, Q9P202
# Test: holdup assay
# Parameters: key: below the threshold = too weak to quantify, mostly under pKd 3.1 to 4
# Conditions: plain residues with an end cap or a label only (N-terminal biotin on a linker: ado-ado)
row,Binder,pKd
1,"VISSDDLTEL [CAPN6, Q9Y6Q1]",4
2,"QLGSPTADLA [SIPA1, Q96FS4]",3.55

# Target: T4, PDZD7_3, Q9H5P4
# Test: holdup assay
# Parameters: key: below the threshold = too weak to quantify, mostly under pKd 3.1 to 4
# Conditions: plain residues with an end cap or a label only (N-terminal biotin on a linker: ado-ado)
row,Binder,pKd
1,"VISSDDLTEL [CAPN6, Q9Y6Q1]",3.87
2,"QLGSPTADLA [SIPA1, Q96FS4]",below the threshold

# Target: T5, TJP3_3, O95049
# Test: holdup assay
# Parameters: key: below the threshold = too weak to quantify, mostly under pKd 3.1 to 4
# Conditions: plain residues with an end cap or a label only (N-terminal biotin on a linker: ado-ado)
row,Binder,pKd
1,"VISSDDLTEL [CAPN6, Q9Y6Q1]",below the threshold
2,"QLGSPTADLA [SIPA1, Q96FS4]",below the threshold

# Target: T6, SIPA1L2, Q9P2F8
# Test: holdup assay
# Parameters: key: below the threshold = too weak to quantify, mostly under pKd 3.1 to 4
# Conditions: plain residues with an end cap or a label only (N-terminal biotin on a linker: ado-ado)
row,Binder,pKd
1,"VISSDDLTEL [CAPN6, Q9Y6Q1]",below the threshold
2,"QLGSPTADLA [SIPA1, Q96FS4]",below the threshold

# Target: SCRIB_1, Q14160
# Test: holdup assay
# Parameters: key: below the threshold = too weak to quantify, mostly under pKd 3.1 to 4
# Conditions: plain residues with an end cap or a label only (N-terminal biotin on a linker: ado-ado)
# Sequence of SCRIB_1, Q14160 (Q14160 718-814): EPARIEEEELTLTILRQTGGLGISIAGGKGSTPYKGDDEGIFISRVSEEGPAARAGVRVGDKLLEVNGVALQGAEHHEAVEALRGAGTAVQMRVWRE
row,Binder,pKd
1,"VISSDDLTEL [CAPN6, Q9Y6Q1]",3.6
2,"QLGSPTADLA [SIPA1, Q96FS4]",below the threshold

# Target: T7, SNTA1, Q13424
# Test: holdup assay
# Parameters: key: below the threshold = too weak to quantify, mostly under pKd 3.1 to 4
# Conditions: plain residues with an end cap or a label only (N-terminal biotin on a linker: ado-ado)
row,Binder,pKd
1,"VISSDDLTEL [CAPN6, Q9Y6Q1]",below the threshold
2,"QLGSPTADLA [SIPA1, Q96FS4]",below the threshold

# Target: T8, CARD11, Q9BXL7
# Test: holdup assay
# Parameters: key: below the threshold = too weak to quantify, mostly under pKd 3.1 to 4
# Conditions: plain residues with an end cap or a label only (N-terminal biotin on a linker: ado-ado)
row,Binder,pKd
1,"VISSDDLTEL [CAPN6, Q9Y6Q1]",below the threshold
2,"QLGSPTADLA [SIPA1, Q96FS4]",below the threshold

# Target: GRIP2_7, Q9C0E4
# Test: holdup assay
# Parameters: key: below the threshold = too weak to quantify, mostly under pKd 3.1 to 4
# Conditions: plain residues with an end cap or a label only (N-terminal biotin on a linker: ado-ado)
# Sequence of GRIP2_7, Q9C0E4 (Q9C0E4 934-1023): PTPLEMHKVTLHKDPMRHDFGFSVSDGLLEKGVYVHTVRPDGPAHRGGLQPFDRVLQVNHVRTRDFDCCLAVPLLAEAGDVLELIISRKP
row,Binder,pKd
1,"VISSDDLTEL [CAPN6, Q9Y6Q1]",below the threshold
2,"QLGSPTADLA [SIPA1, Q96FS4]",below the threshold

# Target: T9, APBA2_2, Q99767
# Test: holdup assay
# Parameters: key: below the threshold = too weak to quantify, mostly under pKd 3.1 to 4
# Conditions: plain residues with an end cap or a label only (N-terminal biotin on a linker: ado-ado)
row,Binder,pKd
1,"VISSDDLTEL [CAPN6, Q9Y6Q1]",below the threshold
2,"QLGSPTADLA [SIPA1, Q96FS4]",below the threshold

# Target: T10, FRMPD1, Q5SYB0
# Test: holdup assay
# Parameters: key: below the threshold = too weak to quantify, mostly under pKd 3.1 to 4
# Conditions: plain residues with an end cap or a label only (N-terminal biotin on a linker: ado-ado)
row,Binder,pKd
1,"VISSDDLTEL [CAPN6, Q9Y6Q1]",below the threshold
2,"QLGSPTADLA [SIPA1, Q96FS4]",below the threshold

# Target: T11, ARHGAP21, Q5T5U3
# Test: holdup assay
# Parameters: key: below the threshold = too weak to quantify, mostly under pKd 3.1 to 4
# Conditions: plain residues with an end cap or a label only (N-terminal biotin on a linker: ado-ado)
row,Binder,pKd
1,"VISSDDLTEL [CAPN6, Q9Y6Q1]",below the threshold
2,"QLGSPTADLA [SIPA1, Q96FS4]",below the threshold

# Target: TJP2_1, Q9UDY2
# Test: holdup assay
# Parameters: key: below the threshold = too weak to quantify, mostly under pKd 3.1 to 4
# Conditions: plain residues with an end cap or a label only (N-terminal biotin on a linker: ado-ado)
# Sequence of TJP2_1, Q9UDY2 (Q9UDY2 24-128): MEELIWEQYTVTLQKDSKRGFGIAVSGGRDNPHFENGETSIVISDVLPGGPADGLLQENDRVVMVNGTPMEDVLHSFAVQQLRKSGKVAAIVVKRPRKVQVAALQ
row,Binder,pKd
1,"VISSDDLTEL [CAPN6, Q9Y6Q1]",below the threshold
2,"QLGSPTADLA [SIPA1, Q96FS4]",below the threshold

# Target: GORASP1, Q9BQQ3
# Test: holdup assay
# Parameters: key: below the threshold = too weak to quantify, mostly under pKd 3.1 to 4
# Conditions: plain residues with an end cap or a label only (N-terminal biotin on a linker: ado-ado)
# Sequence of GORASP1, Q9BQQ3 (Q9BQQ3 1-208): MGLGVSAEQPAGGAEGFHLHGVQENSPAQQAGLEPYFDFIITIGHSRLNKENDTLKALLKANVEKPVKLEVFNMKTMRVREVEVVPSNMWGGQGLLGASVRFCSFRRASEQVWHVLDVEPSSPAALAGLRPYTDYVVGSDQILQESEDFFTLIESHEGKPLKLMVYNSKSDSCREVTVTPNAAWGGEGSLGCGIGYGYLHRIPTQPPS
row,Binder,pKd
1,"VISSDDLTEL [CAPN6, Q9Y6Q1]",below the threshold
2,"QLGSPTADLA [SIPA1, Q96FS4]",below the threshold

# Target: PARD3_3, Q8TEW0
# Test: holdup assay
# Parameters: key: below the threshold = too weak to quantify, mostly under pKd 3.1 to 4
# Conditions: plain residues with an end cap or a label only (N-terminal biotin on a linker: ado-ado)
# Sequence of PARD3_3, Q8TEW0 (Q8TEW0 582-685): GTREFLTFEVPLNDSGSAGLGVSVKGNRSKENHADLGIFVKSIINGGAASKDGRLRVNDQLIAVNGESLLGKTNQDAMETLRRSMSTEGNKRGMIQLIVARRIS
row,Binder,pKd
1,"VISSDDLTEL [CAPN6, Q9Y6Q1]",3.84
2,"QLGSPTADLA [SIPA1, Q96FS4]",below the threshold

# Target: NHERF4_2, Q86UT5
# Test: holdup assay
# Parameters: key: below the threshold = too weak to quantify, mostly under pKd 3.1 to 4
# Conditions: plain residues with an end cap or a label only (N-terminal biotin on a linker: ado-ado)
# Sequence of NHERF4_2, Q86UT5 (Q86UT5 220-308): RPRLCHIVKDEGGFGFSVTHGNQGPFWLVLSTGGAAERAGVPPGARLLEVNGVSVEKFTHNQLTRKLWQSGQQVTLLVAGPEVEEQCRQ
row,Binder,pKd
1,"VISSDDLTEL [CAPN6, Q9Y6Q1]",below the threshold
2,"QLGSPTADLA [SIPA1, Q96FS4]",below the threshold

# Target: GRIP2_3, Q9C0E4
# Test: holdup assay
# Parameters: key: below the threshold = too weak to quantify, mostly under pKd 3.1 to 4
# Conditions: plain residues with an end cap or a label only (N-terminal biotin on a linker: ado-ado)
# Sequence of GRIP2_3, Q9C0E4 (Q9C0E4 238-339): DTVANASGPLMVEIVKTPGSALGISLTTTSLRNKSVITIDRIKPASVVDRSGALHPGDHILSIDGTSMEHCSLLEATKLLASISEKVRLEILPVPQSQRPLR
row,Binder,pKd
1,"VISSDDLTEL [CAPN6, Q9Y6Q1]",below the threshold
2,"QLGSPTADLA [SIPA1, Q96FS4]",below the threshold

# Target: T12, PARD3B_1, Q8TEW8
# Test: holdup assay
# Parameters: key: below the threshold = too weak to quantify, mostly under pKd 3.1 to 4
# Conditions: plain residues with an end cap or a label only (N-terminal biotin on a linker: ado-ado)
row,Binder,pKd
1,"VISSDDLTEL [CAPN6, Q9Y6Q1]",below the threshold
2,"QLGSPTADLA [SIPA1, Q96FS4]",below the threshold

# Target: MAGI1_2, Q96QZ7
# Test: holdup assay
# Parameters: key: below the threshold = too weak to quantify, mostly under pKd 3.1 to 4
# Conditions: plain residues with an end cap or a label only (N-terminal biotin on a linker: ado-ado)
# Sequence of MAGI1_2, Q96QZ7 (Q96QZ7 456-580): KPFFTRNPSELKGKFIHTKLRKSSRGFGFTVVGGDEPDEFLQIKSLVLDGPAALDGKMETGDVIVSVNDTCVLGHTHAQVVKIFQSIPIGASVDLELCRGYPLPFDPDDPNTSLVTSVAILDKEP
row,Binder,pKd
1,"VISSDDLTEL [CAPN6, Q9Y6Q1]",below the threshold
2,"QLGSPTADLA [SIPA1, Q96FS4]",below the threshold

# Target: TJP1_2, Q07157
# Test: holdup assay
# Parameters: key: below the threshold = too weak to quantify, mostly under pKd 3.1 to 4
# Conditions: plain residues with an end cap or a label only (N-terminal biotin on a linker: ado-ado)
# Sequence of TJP1_2, Q07157 (Q07157 181-274): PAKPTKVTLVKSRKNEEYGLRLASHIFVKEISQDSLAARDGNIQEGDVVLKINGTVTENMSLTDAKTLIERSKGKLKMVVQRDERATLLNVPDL
row,Binder,pKd
1,"VISSDDLTEL [CAPN6, Q9Y6Q1]",below the threshold
2,"QLGSPTADLA [SIPA1, Q96FS4]",below the threshold

# Target: T13, HTRA3, P83110
# Test: holdup assay
# Parameters: key: below the threshold = too weak to quantify, mostly under pKd 3.1 to 4
# Conditions: plain residues with an end cap or a label only (N-terminal biotin on a linker: ado-ado)
row,Binder,pKd
1,"VISSDDLTEL [CAPN6, Q9Y6Q1]",below the threshold
2,"QLGSPTADLA [SIPA1, Q96FS4]",below the threshold

# Target: LIMK2, P53671
# Test: holdup assay
# Parameters: key: below the threshold = too weak to quantify, mostly under pKd 3.1 to 4
# Conditions: plain residues with an end cap or a label only (N-terminal biotin on a linker: ado-ado)
# Sequence of LIMK2, P53671 (P53671 143-248): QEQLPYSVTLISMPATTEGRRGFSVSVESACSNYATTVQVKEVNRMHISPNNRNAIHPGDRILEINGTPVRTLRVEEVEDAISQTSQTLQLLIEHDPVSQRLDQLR
row,Binder,pKd
1,"VISSDDLTEL [CAPN6, Q9Y6Q1]",below the threshold
2,"QLGSPTADLA [SIPA1, Q96FS4]",below the threshold

# Target: SCRIB_3, Q14160
# Test: holdup assay
# Parameters: key: below the threshold = too weak to quantify, mostly under pKd 3.1 to 4
# Conditions: plain residues with an end cap or a label only (N-terminal biotin on a linker: ado-ado)
# Sequence of SCRIB_3, Q14160 (Q14160 999-1103): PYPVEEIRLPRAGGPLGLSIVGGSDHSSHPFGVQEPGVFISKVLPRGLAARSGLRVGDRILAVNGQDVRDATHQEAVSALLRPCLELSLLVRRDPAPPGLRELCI
row,Binder,pKd
1,"VISSDDLTEL [CAPN6, Q9Y6Q1]",3.86
2,"QLGSPTADLA [SIPA1, Q96FS4]",below the threshold
